Reference: paper PMC4054823

Biological target: SERCA (UniProt P04191)
Experiment: time-resolved FRET in reconstituted lipid vesicles
Conditions: reference: unphosphorylated labeled PLB; sites S16

other: mole fraction of PLB bound to SERCA (xDA): weaker; reference 0.99 ± 0.01
Substance: phospholamban (PLB) (from UniProt P61015) PKA-phosphorylated, HPLC-purified labeled PLB (pPLB)
